Test results as given in patent US20140179604A1 (U S A REPRESENTED BY THE DEPARTMENT OF VETERANS AFFAIRS, published 2014).
Like-named read-outs stand apart in the source and are kept apart here. Non-standard residues stand in square brackets, D forms with d. No end group written: not given here. *: point of attachment. NMeY = CN[C@@H](Cc1ccc(O)cc1)C(=O)O; Agmatine = N=C(N)NCCCCN*; Nle = CCCC[C@H](N)C(=O)O; Orn = NCCC[C@H](N)C(=O)O; Abu = CC[C@H](N)C(=O)O; GABA = NCCCC(=O)O

T1: GHRH receptor (membrane receptors of human anterior pituitary cells) (human) (UniProt Q02643)
T1 sequence (looked up): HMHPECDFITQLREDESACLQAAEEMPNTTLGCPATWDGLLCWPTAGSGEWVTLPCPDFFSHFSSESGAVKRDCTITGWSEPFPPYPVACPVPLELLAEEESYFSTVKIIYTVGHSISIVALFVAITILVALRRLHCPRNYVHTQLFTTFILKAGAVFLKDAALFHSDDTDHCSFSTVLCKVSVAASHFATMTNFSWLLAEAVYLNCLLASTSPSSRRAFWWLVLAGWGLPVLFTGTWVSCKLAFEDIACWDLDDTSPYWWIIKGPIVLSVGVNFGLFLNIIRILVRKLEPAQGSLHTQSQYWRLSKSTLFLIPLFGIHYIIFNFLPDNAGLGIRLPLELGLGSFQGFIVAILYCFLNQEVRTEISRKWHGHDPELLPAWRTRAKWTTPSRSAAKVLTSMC

T2: GHRH receptor (membrane receptors of human anterior pituitary cells) (human), Q02643
T2 chain: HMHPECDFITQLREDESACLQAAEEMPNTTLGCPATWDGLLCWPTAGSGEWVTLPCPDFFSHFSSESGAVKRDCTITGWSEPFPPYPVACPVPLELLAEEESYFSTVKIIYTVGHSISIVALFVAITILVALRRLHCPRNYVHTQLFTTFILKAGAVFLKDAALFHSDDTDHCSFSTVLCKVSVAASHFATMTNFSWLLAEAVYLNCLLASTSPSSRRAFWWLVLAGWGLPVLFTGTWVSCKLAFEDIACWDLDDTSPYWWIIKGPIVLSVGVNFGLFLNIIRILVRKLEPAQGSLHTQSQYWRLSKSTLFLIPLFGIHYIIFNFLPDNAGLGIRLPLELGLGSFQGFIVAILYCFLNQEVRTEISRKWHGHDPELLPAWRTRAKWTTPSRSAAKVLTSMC


Assays:
[1] = target: T1, GHRH receptor (membrane receptors of human anterior pituitary cells) (human); test: competition with 125I-JV-1-42, human pituitary membranes
[2] = target: T1, GHRH receptor (membrane receptors of human anterior pituitary cells) (human); test: competition with 125I-[His1,Nle27]hGHRH(1-32)NH2, human pituitary membranes
[3] = target: T1, GHRH receptor (membrane receptors of human anterior pituitary cells) (human); test: competition with 125I-JV-1-42, human pituitary membranes; remark: listed apart in the source
[4] = target: T2, GHRH receptor (membrane receptors of …); test: as above

Row | IC50 [1] [nM] | Relative affinity (Binding potency) vs JI-38 [1] [JI-38 = 1] | IC50 [2] [nM] | Relative affinity (Binding potency) compared to JI-38 [2] [JI-38 = 1] | Relative affinity (Binding potency) compared to hGHRH(1-29) (hGHRH(1-29)NH2 = 1) [2] | IC50 [3] [nM] | Relative affinity (Binding potency) vs GHRH (GHRH(1-29) = 1) [3] | Relative affinity (Binding potency) vs JI-38 [3] [JI-38 = 1] | IC50 [4] [nM] | Relative affinity (Binding potency) vs JI-38 [4] [JI-38 = 1] | Binder
1 | 0.27 | 16.1 | 1.02 | 2.69 | 7.5 | 0.01 | 406 | 171 |  |  | [NMeY]ADAIFTQSYR[Orn]VL[Abu]QLSAR[Orn]LLQDI[Nle]D[Agmatine] (peptide, from a related filing, not fully specified (C-terminus)) [P-20356 [N-Me-Tyr^1, Gln^8, Orn^12, Abu^15, Orn^21, Nle^27, Asp^28, Agm^29]hGHRH(1-29)NH2]
2 |  |  |  |  |  |  |  |  | 1.22 | 3.57 | [NMeY]ADAIFTQSYR[Orn]VL[Abu]QLSAR[Orn]LLQDI[Nle]SRQ[GABA]-NH2 (N-terminus assumed; SMILES CCCC[C@H](NC(=O)[C@@H](NC(=O)[C@H](CC(=O)O)NC(=O)[C@H](CCC(N)=O)NC(=O)[C@H](CC(C)C)NC(=O)[C@H](CC(C)C)NC(=O)[C@H](CCCN)NC(=O)[C@H](CCCNC(=N)N)NC(=O)[C@H](C)NC(=O)[C@H](CO)NC(=O)[C@H](CC(C)C)NC(=O)[C@H](CCC(N)=O)NC(=O)[C@H](CC)NC(=O)[C@H](CC(C)C)NC(=O)[C@@H](NC(=O)[C@H](CCCN)NC(=O)[C@H](CCCNC(=N)N)NC(=O)[C@H](Cc1ccc(O)cc1)NC(=O)[C@H](CO)NC(=O)[C@H](CCC(N)=O)NC(=O)[C@@H](NC(=O)[C@H](Cc1ccccc1)NC(=O)[C@@H](NC(=O)[C@H](C)NC(=O)[C@H](CC(=O)O)NC(=O)[C@H](C)NC(=O)[C@H](Cc1ccc(O)cc1)NC)[C@@H](C)CC)[C@@H](C)O)C(C)C)[C@@H](C)CC)C(=O)N[C@@H](CO)C(=O)N[C@@H](CCCNC(=N)N)C(=O)N[C@@H](CCC(N)=O)C(=O)NCCCC(N)=O) [P-29703 [N-Me-Tyr^1, Gln^8, Orn^12, Abu^15, Orn^21, Nle^27, Gln-Gab^30]hGHRH(1-30)NH2]
